According to patent publication US20240293512A1 (HANMI PHARM, published 2024):
Substitutions are numbered along the chain they refer to. Bridge positions count the residues as written; N and C are the ends. Square brackets hold non-standard residues; d marks the D form. Ends that are not written are not given here. * marks the point of attachment. Acetyl(2-(4-imidazolyl)) = O=C(Cc1c[nH]cn1)*; Aib = CC(C)(N)C(=O)O

T1: human GIP receptor (human, UniProt P48546 22-466)
T1 sequence (looked up): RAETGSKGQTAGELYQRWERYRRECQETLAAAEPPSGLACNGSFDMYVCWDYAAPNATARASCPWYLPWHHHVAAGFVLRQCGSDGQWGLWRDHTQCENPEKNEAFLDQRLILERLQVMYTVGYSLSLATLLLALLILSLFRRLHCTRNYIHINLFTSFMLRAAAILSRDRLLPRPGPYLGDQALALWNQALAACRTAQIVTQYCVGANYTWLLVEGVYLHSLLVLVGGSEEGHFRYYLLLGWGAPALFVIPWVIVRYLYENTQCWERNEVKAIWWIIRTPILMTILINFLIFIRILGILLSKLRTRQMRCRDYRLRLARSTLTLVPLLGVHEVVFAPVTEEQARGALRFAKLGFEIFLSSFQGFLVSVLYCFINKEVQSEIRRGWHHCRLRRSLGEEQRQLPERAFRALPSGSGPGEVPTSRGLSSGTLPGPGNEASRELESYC

B1: triple agonist of SEQ ID NO: 63 (peptide)
peptide: {Acetyl(2-(4-imidazolyl))}-[Aib]QGTFTSDCSKYLDERAAQDFVQWLLDGGPSSGAPPPS
B2: triple agonist of SEQ ID NO: 7 (peptide)
peptide: H[Aib]QGTFTSDVSKYLDGQAAKEFVAWLLKGC
B3: triple agonist of SEQ ID NO: 6 (peptide)
peptide: H[Aib]QGTFTSDVSSYLDGQAAKEFVAWLLKGC
B4: triple agonist of SEQ ID NO: 60 (peptide)
peptide: {Acetyl(2-(4-imidazolyl))}-[Aib]QGTFTSDYSIAMDEKHCKDFVNWLLNTK
modifications: bridge 15-19
B5: triple agonist of SEQ ID NO: 56 (peptide)
peptide: H[Aib]QGTFTSDYSKYLDEKRQKEFVNWLLAQC
modifications: bridge (positions not given here); also: ring formation between two underlined residues
B6: triple agonist of SEQ ID NO: 50 (peptide)
peptide: H[Aib]QGTFTSDYSKYLDEKRAKEFVQWLLDHHPSSGQPPPSC
modifications: bridge 16-20
B7: triple agonist of SEQ ID NO: 52 (peptide)
peptide: H[Aib]QGTFTSDYSKYLDEKRQKEFVQWLLDTC
modifications: bridge 16-20
B8: triple agonist of SEQ ID NO: 64 (peptide)
peptide: Y[Aib]QGTFTSDYSKYLDECAAKEFVQWLLDHHPSSGQPPPS
modifications: bridge 16-20
B9: triple agonist of SEQ ID NO: 5 (peptide)
peptide: H[Aib]QGTFTSDVSSYLLGQQQKEFIAWLVKGGGPSSGAPPPSC
B10: triple agonist of SEQ ID NO: 54 (peptide)
peptide: H[Aib]EGTFTSDYSIAMDEIHQKDFVDWLLAEC
modifications: bridge 16-20
B11: triple agonist of SEQ ID NO: 59 (peptide)
peptide: {Acetyl(2-(4-imidazolyl))}-[Aib]QGTFTSDYSICMDEKHQKDFVNWLLNTK
modifications: bridge 15-19
B12: triple agonist of SEQ ID NO: 51 (peptide)
peptide: H[Aib]QGTFTSDYSKYLDEKRQKEFVQWLLNTC
modifications: bridge 16-20
B13: triple agonist of SEQ ID NO: 58 (peptide)
peptide: H[Aib]QGTFTSDYSKYLDEKRQKEFVQWLLNTKC
modifications: bridge 16-20
B14: triple agonist of SEQ ID NO: 43 (peptide)
peptide: Y[Aib]QGTFTSDYSKYLDEKRAKEFVQWLLDHHCSSGQPPPS
modifications: not fully specified (bridges)
B15: triple agonist of SEQ ID NO: 62 (peptide)
peptide: {Acetyl(2-(4-imidazolyl))}-[Aib]QGTFTSDKSKYLDERAAQDFVQWLLDGGPSSGAPPPS
B16: triple agonist of SEQ ID NO: 55 (peptide)
peptide: H[Aib]QGTFTSDYSIAMDEIHQKDFVNWLLAQC
modifications: bridge 16-20
B17: triple agonist of SEQ ID NO: 57 (peptide)
peptide: H[Aib]QGTFTSDYSIAMDEIHQKDFVNWLLNTC
modifications: bridge 16-20
B18: triple agonist of SEQ ID NO: 44 (peptide)
peptide: HGQGTFTSDCSKQLDGQAAQEFVAWLLAGGPSSGAPPPS
B19: triple agonist of SEQ ID NO: 45 (peptide)
peptide: B18 peptide with Q13Y, L14M, E21D
B20: triple agonist of SEQ ID NO: 46 (peptide)
peptide: B18 peptide with Q13Y, G16E, A18H
B21: triple agonist of SEQ ID NO: 47 (peptide)
peptide: B18 peptide with Q13Y, A18R
B22: triple agonist of SEQ ID NO: 48 (peptide)
peptide: B18 peptide with Q13Y, A18R, E21D, A24N
B23: triple agonist of SEQ ID NO: 49 (peptide)
peptide: [Acetyl(2-(4-imidazolyl))][Aib]QGTFTSDYSICMDEIHQKDFVNWLLNTK
modifications: bridge 16-20
B24: triple agonist of SEQ ID NO: 53 (peptide)
peptide: H[Aib]EGTFTSDYSIAMDEIHQKDFVNWLLAQC
modifications: bridge 16-20
B25: triple agonist of SEQ ID NO: 61 (peptide)
peptide: {Acetyl(2-(4-imidazolyl))}-[Aib]QGTFTSDYSIAMDEIACKDFVNWLLNTK
modifications: bridge 15-19

What follows are binders tested against human GLP-1 receptor (human, UniProt P43220 24-463) (assay: cell-based or functional assay).

Binder | In vitro activity compared with native peptide (%) vs GLP-1 (cAMP EC50) [%]
B1 | 15.3
B2 | 13.7
B3 | 17
B4 | 106
B5 | 57.9
B6 | 67.4
B7 | 44.1
B8 | 64.6
B9 | 42.1
B10 | 30.6
B11 | 40.3
B12 | 14.4
B13 | 39.1
B14 | 12.6
B15 | 5.2
B16 | 27.1
B17 | 11.7
B18 | 1.3
B19 | 6.6
B20 | 1.4
B21 | 2.4
B22 | 1.5
B23 | 29.8
B24 | 161
B25 | 59.8

The binders below were run against human GCG receptor (human, UniProt P47871 26-477) (assay: cell-based or functional assay).
Sequence of human GCG receptor (P47871 26-477): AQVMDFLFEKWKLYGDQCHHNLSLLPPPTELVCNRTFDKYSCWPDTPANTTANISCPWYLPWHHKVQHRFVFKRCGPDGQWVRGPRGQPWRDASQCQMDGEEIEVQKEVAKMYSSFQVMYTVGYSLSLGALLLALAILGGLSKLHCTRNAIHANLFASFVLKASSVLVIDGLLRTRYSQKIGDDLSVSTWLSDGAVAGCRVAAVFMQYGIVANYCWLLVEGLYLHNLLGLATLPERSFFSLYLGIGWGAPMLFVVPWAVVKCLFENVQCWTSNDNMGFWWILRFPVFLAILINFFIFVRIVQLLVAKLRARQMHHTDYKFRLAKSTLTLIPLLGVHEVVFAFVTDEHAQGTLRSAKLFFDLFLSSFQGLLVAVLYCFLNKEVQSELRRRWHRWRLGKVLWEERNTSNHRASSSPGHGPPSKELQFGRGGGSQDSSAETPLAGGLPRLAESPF

Binder | In vitro activity compared with native peptide (%) vs Glucagon (cAMP EC50) [%]
B1 | < 0.1
B2 | < 0.1
B3 | < 0.1
B4 | < 0.1
B5 | 4.9
B6 | 50.5
B7 | 7.5
B8 | 60.1
B9 | < 0.1
B10 | 1.4
B11 | < 0.1
B12 | 2
B13 | 2.6
B14 | 88.4
B15 | < 0.1
B16 | 0.7
B17 | < 0.1
B18 | < 0.1
B19 | < 0.1
B20 | < 0.1
B21 | < 0.1
B22 | < 0.1
B23 | < 0.1
B24 | 8.4
B25 | < 0.1

Each binder was assayed against T1, human GIP receptor (assay: cell-based or functional assay).

Binder | In vitro activity compared with native peptide (%) vs GIP (cAMP EC50) [%]
B1 | < 0.1
B2 | < 0.1
B3 | < 0.1
B4 | 8.2
B5 | 0.8
B6 | 2.7
B7 | 0.3
B8 | 92.9
B9 | < 0.1
B10 | 0.1
B11 | 4
B12 | 0.1
B13 | 0.2
B14 | 3.7
B15 | < 0.1
B16 | 2.4
B17 | 0.3
B18 | < 0.1
B19 | < 0.1
B20 | < 0.1
B21 | < 0.1
B22 | < 0.1
B23 | 3.3
B24 | 1.3
B25 | 2.8
